In experiment [1] the target is T1, human MCH-2R (human, UniProt Q969V1 1-340). The experiment can be described thus: SPA, total against non-specific binding (500 nM unlabeled hMCH).
Experiment [2] addresses T2, human MCH-1R (human, UniProt Q99705 1-353). The description is as above.
Experiment [3] concerns the target T1, human MCH-2R. Put plainly: cell-based or functional assay.
For experiment [4], the target named is T2, human MCH-1R. Put plainly: cell-based or functional assay.
The target in experiment [5] is T2, human MCH-1R. Put plainly: SPA, displacement of [125I]-[Phe13,Tyr19]-hMCH, CHO/MCH-1R membranes. In general terms: In a radioligand displacement assay an active substance lowers the binding of a labelled ligand.
Experiment [6] deals with T1, human MCH-2R. The experiment can be described thus: SPA, displacement of [125I]-[Phe13,Tyr19]-hMCH, MCH-2R membranes.
In experiment [7] the target is T2, human MCH-1R. Put plainly: ratio of the two SPA IC50s.
For experiment [8], the target named is T1, human MCH-2R. The experiment can be described thus: SPA, displacement of [125I]-[Phe13,Tyr19]-hMCH, MCH-2R membranes. Here is the method:
(§1) After equilibrating at room temperature for 3 hours, the plates were read in a TopCount (Packard, Meriden, Conn.). IC₅₀ calculations were performed using Prism 3.0 (GraphPad. Software, San Diego, Calif.). The IC₅₀ values were measured in three different experiments.

The target of experiment [9] is T1, human MCH-2R. Put plainly: cell-based or functional assay. The source holds these as a separate data set.
In experiment [10] the target is T2, human MCH-1R. Put plainly: cell-based or functional assay. The source holds these as a separate data set.
The target of experiment [11] is T1, human MCH-2R. The experiment can be described thus: cell-based or functional assay. The source holds these as a separate data set.
For experiment [12], the target named is T2, human MCH-1R. The experiment can be described thus: cell-based or functional assay. This is another data set of the same source.
Experiment [13] addresses T2, human MCH-1R. The experiment can be described thus: SPA, displacement of [125I]-[Phe13,Tyr19]-hMCH, CHO/MCH-1R membranes. Here is the method:
as §1

Experiment [14] addresses T2, human MCH-1R. Put plainly: ratio of the two SPA IC50s.
In experiment [15] the target is T1, human MCH-2R. Put plainly: SPA radioligand binding assay. As for the experimental part:
as §1

The target in experiment [16] is T2, human MCH-1R. The experiment can be described thus: SPA radioligand binding assay. As for the experimental part: as §1
The target of experiment [17] is T2, human MCH-1R. Put plainly: cell-based or functional assay. The source holds these as a separate data set.
Experiment [18] addresses T2, human MCH-1R. The experiment can be described thus: cell-based or functional assay. This is another data set of the same source.
For experiment [19], the target named is T1, human MCH-2R. Put plainly: SPA, displacement of [125I]-[Phe13,Tyr19]-hMCH, MCH-2R membranes. As for the experimental part:
as §1
This is another data set of the same source.

Experiment [20] addresses T1, human MCH-2R. The description is as above. Here is the method: as §1
This is another data set of the same source.

Experiment [21] deals with T2, human MCH-1R. The experiment can be described thus: SPA, displacement of [125I]-[Phe13,Tyr19]-hMCH, CHO/MCH-1R membranes. Here is the method:
as §1
This is another data set of the same source.

For experiment [22], the target named is T2, human MCH-1R. The experiment is described as above. As for the experimental part: as §1
This is another data set of the same source.

Experiment [23] addresses T1, human MCH-2R. Put plainly: cell-based or functional assay. This is another data set of the same source.
Experiment [24] has as its target T2, human MCH-1R. Put plainly: ratio of the two SPA IC50s. The source holds these as a separate data set.

As a reminder, the IC50 is the midpoint of a concentration-inhibition curve. Low readings indicate inhibition by little substance, high ones a need for much substance. One may read the EC50 as the concentration needed to bring the measured effect to its halfway point. Higher therefore signals lower potency in that assay.

Where two headings read alike, the source gives them in different places. Positions of bridges follow the written chain, without caps; N, C: chain ends. Non-standard residues stand in square brackets, D forms with d. No end group written: not given here. dCit = NC(=O)NCCC[C@@H](N)C(=O)O; Nle = CCCC[C@H](N)C(=O)O

T1 sequence (Q969V1 whole entry): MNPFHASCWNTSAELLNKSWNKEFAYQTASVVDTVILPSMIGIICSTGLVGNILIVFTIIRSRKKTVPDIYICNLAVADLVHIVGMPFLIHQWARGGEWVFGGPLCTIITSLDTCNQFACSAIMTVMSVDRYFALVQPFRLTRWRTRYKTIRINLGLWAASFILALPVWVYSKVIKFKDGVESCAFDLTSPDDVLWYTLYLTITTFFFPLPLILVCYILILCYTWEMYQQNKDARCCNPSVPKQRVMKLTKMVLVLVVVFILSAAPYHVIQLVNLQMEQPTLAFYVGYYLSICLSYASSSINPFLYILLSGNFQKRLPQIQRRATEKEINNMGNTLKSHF
T2 sequence (Q99705 whole entry): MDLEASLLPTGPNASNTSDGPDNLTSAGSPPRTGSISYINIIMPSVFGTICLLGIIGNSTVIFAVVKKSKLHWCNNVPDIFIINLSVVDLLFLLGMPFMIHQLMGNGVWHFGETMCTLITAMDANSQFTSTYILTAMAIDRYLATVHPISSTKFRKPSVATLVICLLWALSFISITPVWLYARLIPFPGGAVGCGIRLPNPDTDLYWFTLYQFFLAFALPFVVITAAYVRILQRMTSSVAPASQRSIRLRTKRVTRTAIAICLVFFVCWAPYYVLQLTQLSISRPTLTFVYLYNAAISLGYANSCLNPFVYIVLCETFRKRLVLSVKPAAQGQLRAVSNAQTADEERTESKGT

Regarding [^125I]-[Phe^13Tyr^19]-hMCH (peptide), the specific binding window in the experiment with human MCH-2R [1] was 3 ×; with human MCH-1R [2], greater than 6 ×.

In the experiment with human MCH-2R [3], Ac-[dCit]CMLNRVYRPC-NH2 (disulfide 2-11 (inferred)) [SEQ. ID. NO. 34 (D-Cit^6, Asn^10 analog of Ac-hMCH(6-16)-NH2)] came in with an Activation %, aequorin bioluminescence of 8% and an EC50, aequorin bioluminescence greater than 10000 nM. In the experiment with human MCH-1R [4], this molecule came in with an Activation %, aequorin bioluminescence of 110% and an EC50, aequorin bioluminescence of 1460 nM. The IC50 with human MCH-1R [5] came to 8.3 nM.

Take [dR]C[Nle]LNRVYRPC-NH2 (disulfide 2-11 (inferred)) [SEQ. ID. NO. 32 (ΔAc, D-Arg^6, Nle^8, Asn^10 analog of Ac-hMCH(6-16)-NH2)]: the IC50 with human MCH-2R [6] is 250 nM; in the experiment with human MCH-1R [5], 0.09 nM. In addition, the Selectivity 2/1 (MCH-2R/MCH-1R IC50 ratio) with human MCH-1R [7] came to 890. The Activation %, aequorin bioluminescence in the experiment with human MCH-2R [3] was determined as 53%; with human MCH-1R [4] it was 130%. The EC50, aequorin bioluminescence with human MCH-2R [3] came out at 1470 nM; in the experiment with human MCH-1R [4], 350 nM. Moreover, the Selectivity 2/1 (MCH-2R/MCH-1R EC50 activity ratio) in the experiment with human MCH-1R [4] is 4.

B1: SEQ. ID. NO. 15 (Δ(X^6-Cys^7), Mpr^7 analog of Ac-hMCH(6-16)-NH2) (peptide)
peptide: XMLGRVYRPC
modifications: Ac-Arg^6 segment eliminated; Mpr, des-amino-cysteine (3-mercaptopropionic acid) at position 7 instead of Cys; C-terminal amide; disulfide ring
Regarding B1, the IC50 with human MCH-2R [8] was 3500 nM; with human MCH-1R [13], 7 nM; in the experiment with human MCH-2R [15], greater than 3000 nM. Also, the entries for the “Activation %, aequorin bioluminescence” value with human MCH-2R [9] and with human MCH-1R [10] were 47% and 92%, respectively. Besides, the “EC50, aequorin bioluminescence” value in the experiment with human MCH-2R [9] worked out at 3100 nM; with human MCH-1R [10], 610 nM. The “Selectivity 2/1 (MCH-2R/MCH-1R EC50 activity ratio)” value with human MCH-1R [10] turned out to be 5 ratio. The molecule further registered an EC50 in the experiment with human MCH-2R [11] greater than 3000 nM. Also, in the experiment with human MCH-1R [12], the “fold lower activity than Ac-hMCH(6-16)-NH2” value was roughly 30 fold. In addition, in the experiment with human MCH-1R [14], the “Selectivity 2/1 (MCH-2R/MCH-1R IC50 ratio)” value turned out to be 500 ratio. Besides, the “fold lower binding affinity than Ac-hMCH(6-16)-NH2” value in the experiment with human MCH-1R [16] is roughly 5 fold.

With Ac-RCMLGRVYRPC-NH2 (disulfide 2-11 (inferred), also called ID; NO; parent compound) [Ac-hMCH(6-16)-NH2], the “Activation %, aequorin bioluminescence” value in the experiment with human MCH-1R [17], with human MCH-1R [10] and with human MCH-1R [18] was 99% throughout. The “EC50, aequorin bioluminescence” value in the experiment with human MCH-1R [17], with human MCH-1R [10] and in the experiment with human MCH-1R [18] was 20 nM each time. Moreover, the IC50 amounted to 2 nM in the experiment with human MCH-2R [8]; 2 nM with human MCH-2R [19]; 2 nM in the experiment with human MCH-2R [20]; 1.4 nM with human MCH-1R [13]; 0.5 nM with human MCH-1R [21]; 0.5 nM with human MCH-1R [22].

Turning to Ac-RCMLLRVYRPC-NH2 (disulfide 2-11 (inferred)) [SEQ. ID. NO. 17 (Leu^10 analog of Ac-hMCH(6-16)-NH2)], in the experiment with human MCH-2R [23], the “Activation %, aequorin bioluminescence” value was 74% and the “EC50, aequorin bioluminescence” value stood at 57 nM. Moreover, in the experiment with human MCH-1R [17], the “Activation %, aequorin bioluminescence” value came to 123%; the “EC50, aequorin bioluminescence” value amounted to 32 nM; the “Selectivity 2/1 (MCH-2R/MCH-1R EC50 activity ratio)” value was determined as 1.8 ratio. The same molecule displayed an IC50 in the experiment with human MCH-2R [19] of 27 nM. Moreover, the “Selectivity 2/1 (MCH-2R/MCH-1R IC50 ratio)” value in the experiment with human MCH-1R [24] came out at 1900 ratio. Also, the IC50 with human MCH-1R [21] was 0.03 nM.

With Ac-RCMLARVYRPC-NH2 (disulfide 2-11 (inferred)) [SEQ. ID. NO. 16 (Ala^10 analog of Ac-hMCH(6-16)-NH2)], in the experiment with human MCH-2R [23], the “Activation %, aequorin bioluminescence” value is 102% and the “EC50, aequorin bioluminescence” value is 15 nM. Further, in the experiment with human MCH-1R [17], the “Activation %, aequorin bioluminescence” value was determined as 121%; the “EC50, aequorin bioluminescence” value stood at 51 nM; the “Selectivity 2/1 (MCH-2R/MCH-1R EC50 activity ratio)” value amounted to 0.29 ratio. The molecule further registered an IC50 in the experiment with human MCH-2R [19] of 7 nM. The “Selectivity 2/1 (MCH-2R/MCH-1R IC50 ratio)” value in the experiment with human MCH-1R [24] amounted to 16 ratio. The same molecule yielded an IC50 with human MCH-1R [21] of 0.44 nM.
